According to article PMC8896503:

Key:
Test in all cases: PBM
[1] = target: GCN5 complex (Homo sapiens (THP-1-derived macrophages)) (UniProt Q92830); conditions: IFNg+LPS extract; Nuclear extract PBM (PMA-differentiated THP-1; untreated, LPS 45 min, or IFNg+LPS), antibody detection; buffer, salt, pH and temperature not in the material
[2] = target: T1, TBL1XR1 complex (Homo sapiens (THP-1-derived macrophages)) (UniProt Q9BZK7); conditions: IFNg+LPS extract, Nuclear extract PBM (PMA-differentiated THP-1; untreated, LPS 45 min, or IFNg+LPS), antibody detection, buffer, salt, pH and temperature not in the material
T1 sequence: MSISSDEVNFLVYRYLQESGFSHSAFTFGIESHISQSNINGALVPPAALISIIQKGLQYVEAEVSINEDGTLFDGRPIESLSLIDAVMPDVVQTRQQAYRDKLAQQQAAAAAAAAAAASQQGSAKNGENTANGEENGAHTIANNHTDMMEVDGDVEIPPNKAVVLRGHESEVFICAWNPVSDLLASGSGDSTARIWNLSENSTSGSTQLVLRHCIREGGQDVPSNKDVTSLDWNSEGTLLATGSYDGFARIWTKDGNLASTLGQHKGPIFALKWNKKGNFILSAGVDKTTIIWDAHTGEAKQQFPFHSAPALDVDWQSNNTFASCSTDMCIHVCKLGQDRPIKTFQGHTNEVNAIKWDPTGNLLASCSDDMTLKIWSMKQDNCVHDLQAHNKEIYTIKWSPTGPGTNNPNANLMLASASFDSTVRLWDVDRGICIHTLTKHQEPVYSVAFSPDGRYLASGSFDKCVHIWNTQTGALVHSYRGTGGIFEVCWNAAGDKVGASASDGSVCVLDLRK

[3] = target: RBBP5 complex (Homo sapiens (THP-1-derived macrophages)) (UniProt Q15291); conditions: Nuclear extract PBM (PMA-differentiated THP-1; untreated, LPS 45 min, or IFNg+LPS), antibody detection, buffer, salt, pH and temperature not in the material
Sequence of RBBP5 complex (Homo sapiens (THP-1-derived macrophages)) (Q15291 whole entry, one chain of several): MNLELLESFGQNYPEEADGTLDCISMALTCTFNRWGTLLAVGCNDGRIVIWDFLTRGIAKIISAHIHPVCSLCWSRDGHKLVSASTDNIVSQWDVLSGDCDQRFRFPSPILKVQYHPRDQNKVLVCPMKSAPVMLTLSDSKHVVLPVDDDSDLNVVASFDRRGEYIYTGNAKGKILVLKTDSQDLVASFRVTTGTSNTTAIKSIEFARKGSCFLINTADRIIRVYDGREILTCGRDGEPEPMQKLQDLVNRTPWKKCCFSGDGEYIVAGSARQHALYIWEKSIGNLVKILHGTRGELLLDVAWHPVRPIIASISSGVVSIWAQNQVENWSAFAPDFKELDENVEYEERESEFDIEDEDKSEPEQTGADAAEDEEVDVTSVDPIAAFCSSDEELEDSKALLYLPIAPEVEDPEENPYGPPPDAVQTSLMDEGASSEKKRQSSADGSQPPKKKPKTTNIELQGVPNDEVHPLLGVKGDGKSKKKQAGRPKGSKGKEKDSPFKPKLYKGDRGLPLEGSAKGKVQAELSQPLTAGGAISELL

[4] = target: p65 (RELA, NF-kB) (Homo sapiens (THP-1-derived macrophages)) (UniProt Q04206); conditions: Nuclear extract PBM (PMA-differentiated THP-1; untreated, LPS 45 min, or IFNg+LPS), antibody detection, buffer, salt, pH and temperature not in the material
Sequence of p65 (RELA, NF-kB) (Homo sapiens (THP-1-derived macrophages)) (Q04206 whole entry): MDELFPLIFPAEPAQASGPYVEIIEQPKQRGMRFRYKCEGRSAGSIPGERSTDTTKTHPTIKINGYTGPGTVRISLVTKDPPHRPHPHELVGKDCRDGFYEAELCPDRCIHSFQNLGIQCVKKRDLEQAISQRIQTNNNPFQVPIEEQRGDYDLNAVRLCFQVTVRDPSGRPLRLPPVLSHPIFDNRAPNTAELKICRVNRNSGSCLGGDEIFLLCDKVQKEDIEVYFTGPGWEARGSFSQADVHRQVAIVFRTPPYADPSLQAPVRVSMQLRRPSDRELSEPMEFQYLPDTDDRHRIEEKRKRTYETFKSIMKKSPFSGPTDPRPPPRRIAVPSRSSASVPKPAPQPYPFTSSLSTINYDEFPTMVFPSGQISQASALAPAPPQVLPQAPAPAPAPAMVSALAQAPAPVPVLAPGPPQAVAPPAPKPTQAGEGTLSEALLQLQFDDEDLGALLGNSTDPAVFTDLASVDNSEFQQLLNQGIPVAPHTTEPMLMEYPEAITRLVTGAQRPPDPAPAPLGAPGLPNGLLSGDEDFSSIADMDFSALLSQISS

[5] = target: T2, IRF3 (Homo sapiens (THP-1-derived macrophages)) (UniProt Q14653); conditions: LPS 45 min extract; likely tethered by NF-kB; Nuclear extract PBM (PMA-differentiated THP-1; untreated, LPS 45 min, or IFNg+LPS), antibody detection; buffer, salt, pH and temperature not in the material
T2 sequence: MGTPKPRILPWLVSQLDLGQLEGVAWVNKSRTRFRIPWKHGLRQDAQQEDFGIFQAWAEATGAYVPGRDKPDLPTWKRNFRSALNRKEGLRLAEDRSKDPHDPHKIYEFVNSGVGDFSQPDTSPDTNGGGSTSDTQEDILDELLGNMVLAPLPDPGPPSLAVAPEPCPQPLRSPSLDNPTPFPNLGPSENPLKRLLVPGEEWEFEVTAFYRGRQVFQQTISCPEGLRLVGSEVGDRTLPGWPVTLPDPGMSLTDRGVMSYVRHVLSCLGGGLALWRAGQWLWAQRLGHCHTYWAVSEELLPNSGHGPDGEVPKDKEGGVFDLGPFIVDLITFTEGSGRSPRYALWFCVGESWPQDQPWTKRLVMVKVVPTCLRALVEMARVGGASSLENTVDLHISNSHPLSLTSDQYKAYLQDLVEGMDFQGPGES

[6] = target: p300 complex (Homo sapiens (THP-1-derived macrophages)) (UniProt Q09472); conditions: Nuclear extract PBM (PMA-differentiated THP-1; untreated, LPS 45 min, or IFNg+LPS), antibody detection, buffer, salt, pH and temperature not in the material
Sequence of p300 complex (Homo sapiens (THP-1-derived macrophages)) (Q09472 whole entry, one chain of several): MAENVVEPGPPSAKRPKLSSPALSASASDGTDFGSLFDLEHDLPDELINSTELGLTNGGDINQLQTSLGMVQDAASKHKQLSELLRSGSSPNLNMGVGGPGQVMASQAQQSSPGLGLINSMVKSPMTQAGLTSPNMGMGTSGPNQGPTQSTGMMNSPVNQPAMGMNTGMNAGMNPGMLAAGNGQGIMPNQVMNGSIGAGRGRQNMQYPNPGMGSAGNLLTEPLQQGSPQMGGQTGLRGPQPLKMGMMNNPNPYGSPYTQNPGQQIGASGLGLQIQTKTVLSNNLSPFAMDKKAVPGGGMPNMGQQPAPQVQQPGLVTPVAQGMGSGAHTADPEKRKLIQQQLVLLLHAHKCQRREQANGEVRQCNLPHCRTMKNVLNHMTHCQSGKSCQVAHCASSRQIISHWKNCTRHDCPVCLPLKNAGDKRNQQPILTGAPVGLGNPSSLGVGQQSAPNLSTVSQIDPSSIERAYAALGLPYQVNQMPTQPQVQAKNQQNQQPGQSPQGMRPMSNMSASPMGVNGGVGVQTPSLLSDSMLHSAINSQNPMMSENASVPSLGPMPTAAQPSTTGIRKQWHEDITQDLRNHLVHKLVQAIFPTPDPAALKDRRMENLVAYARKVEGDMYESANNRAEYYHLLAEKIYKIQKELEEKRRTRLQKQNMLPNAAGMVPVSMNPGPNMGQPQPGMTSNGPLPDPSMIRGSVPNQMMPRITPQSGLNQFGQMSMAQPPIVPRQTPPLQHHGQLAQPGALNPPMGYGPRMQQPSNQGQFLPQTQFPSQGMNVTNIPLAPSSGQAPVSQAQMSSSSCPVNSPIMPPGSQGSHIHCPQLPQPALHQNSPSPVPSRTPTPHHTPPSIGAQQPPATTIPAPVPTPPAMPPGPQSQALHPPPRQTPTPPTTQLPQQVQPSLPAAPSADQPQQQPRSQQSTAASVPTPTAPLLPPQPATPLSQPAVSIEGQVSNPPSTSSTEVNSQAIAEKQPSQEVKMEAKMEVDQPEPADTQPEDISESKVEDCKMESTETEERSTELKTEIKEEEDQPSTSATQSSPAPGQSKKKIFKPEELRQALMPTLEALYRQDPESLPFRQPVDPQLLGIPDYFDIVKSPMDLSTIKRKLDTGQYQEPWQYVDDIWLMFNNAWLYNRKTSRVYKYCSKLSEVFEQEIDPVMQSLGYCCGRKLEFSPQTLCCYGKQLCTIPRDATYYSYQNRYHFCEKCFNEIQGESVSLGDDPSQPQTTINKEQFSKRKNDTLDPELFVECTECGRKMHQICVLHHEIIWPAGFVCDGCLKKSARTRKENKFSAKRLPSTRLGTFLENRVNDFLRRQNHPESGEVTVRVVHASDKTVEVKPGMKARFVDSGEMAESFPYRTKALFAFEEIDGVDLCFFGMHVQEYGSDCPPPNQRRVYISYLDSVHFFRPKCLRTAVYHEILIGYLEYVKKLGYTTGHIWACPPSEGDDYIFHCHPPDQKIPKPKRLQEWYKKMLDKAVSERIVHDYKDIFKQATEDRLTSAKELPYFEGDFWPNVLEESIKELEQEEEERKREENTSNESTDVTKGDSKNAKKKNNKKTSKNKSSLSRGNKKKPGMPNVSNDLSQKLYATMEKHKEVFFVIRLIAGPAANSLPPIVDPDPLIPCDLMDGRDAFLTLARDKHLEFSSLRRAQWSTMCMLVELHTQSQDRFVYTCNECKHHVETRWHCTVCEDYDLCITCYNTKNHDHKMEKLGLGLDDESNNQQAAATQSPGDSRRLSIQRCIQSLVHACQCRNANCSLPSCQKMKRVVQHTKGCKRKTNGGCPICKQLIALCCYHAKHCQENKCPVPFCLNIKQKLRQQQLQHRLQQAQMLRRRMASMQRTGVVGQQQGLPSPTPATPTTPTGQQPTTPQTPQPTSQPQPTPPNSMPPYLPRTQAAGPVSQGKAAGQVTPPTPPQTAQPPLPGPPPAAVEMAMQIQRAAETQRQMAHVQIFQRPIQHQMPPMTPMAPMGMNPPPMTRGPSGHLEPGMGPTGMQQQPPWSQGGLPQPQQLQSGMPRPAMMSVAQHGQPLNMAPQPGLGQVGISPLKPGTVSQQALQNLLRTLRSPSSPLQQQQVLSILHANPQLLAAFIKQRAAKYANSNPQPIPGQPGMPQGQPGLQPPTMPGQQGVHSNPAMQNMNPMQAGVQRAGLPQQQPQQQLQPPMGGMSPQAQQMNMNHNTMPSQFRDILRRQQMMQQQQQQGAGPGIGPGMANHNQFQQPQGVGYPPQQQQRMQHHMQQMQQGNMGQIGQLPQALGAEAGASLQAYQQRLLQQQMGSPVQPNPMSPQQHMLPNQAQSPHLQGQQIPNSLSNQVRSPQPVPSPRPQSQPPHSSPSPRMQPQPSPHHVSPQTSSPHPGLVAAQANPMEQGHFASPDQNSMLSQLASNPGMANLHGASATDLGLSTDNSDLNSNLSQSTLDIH

[7] = target: PU.1 (Homo sapiens (THP-1-derived macrophages)) (UniProt P17947); conditions: IFNg+LPS extract; Nuclear extract PBM (PMA-differentiated THP-1; untreated, LPS 45 min, or IFNg+LPS), antibody detection; buffer, salt, pH and temperature not in the material
[8] = target: SMARCA4/BRG1 complex (Homo sapiens (THP-1-derived macrophages)) (UniProt P51532); conditions: IFNg+LPS extract, Nuclear extract PBM (PMA-differentiated THP-1; untreated, LPS 45 min, or IFNg+LPS), antibody detection, buffer, salt, pH and temperature not in the material
Sequence of SMARCA4/BRG1 complex (Homo sapiens (THP-1-derived macrophages)) (P51532 whole entry, one chain of several): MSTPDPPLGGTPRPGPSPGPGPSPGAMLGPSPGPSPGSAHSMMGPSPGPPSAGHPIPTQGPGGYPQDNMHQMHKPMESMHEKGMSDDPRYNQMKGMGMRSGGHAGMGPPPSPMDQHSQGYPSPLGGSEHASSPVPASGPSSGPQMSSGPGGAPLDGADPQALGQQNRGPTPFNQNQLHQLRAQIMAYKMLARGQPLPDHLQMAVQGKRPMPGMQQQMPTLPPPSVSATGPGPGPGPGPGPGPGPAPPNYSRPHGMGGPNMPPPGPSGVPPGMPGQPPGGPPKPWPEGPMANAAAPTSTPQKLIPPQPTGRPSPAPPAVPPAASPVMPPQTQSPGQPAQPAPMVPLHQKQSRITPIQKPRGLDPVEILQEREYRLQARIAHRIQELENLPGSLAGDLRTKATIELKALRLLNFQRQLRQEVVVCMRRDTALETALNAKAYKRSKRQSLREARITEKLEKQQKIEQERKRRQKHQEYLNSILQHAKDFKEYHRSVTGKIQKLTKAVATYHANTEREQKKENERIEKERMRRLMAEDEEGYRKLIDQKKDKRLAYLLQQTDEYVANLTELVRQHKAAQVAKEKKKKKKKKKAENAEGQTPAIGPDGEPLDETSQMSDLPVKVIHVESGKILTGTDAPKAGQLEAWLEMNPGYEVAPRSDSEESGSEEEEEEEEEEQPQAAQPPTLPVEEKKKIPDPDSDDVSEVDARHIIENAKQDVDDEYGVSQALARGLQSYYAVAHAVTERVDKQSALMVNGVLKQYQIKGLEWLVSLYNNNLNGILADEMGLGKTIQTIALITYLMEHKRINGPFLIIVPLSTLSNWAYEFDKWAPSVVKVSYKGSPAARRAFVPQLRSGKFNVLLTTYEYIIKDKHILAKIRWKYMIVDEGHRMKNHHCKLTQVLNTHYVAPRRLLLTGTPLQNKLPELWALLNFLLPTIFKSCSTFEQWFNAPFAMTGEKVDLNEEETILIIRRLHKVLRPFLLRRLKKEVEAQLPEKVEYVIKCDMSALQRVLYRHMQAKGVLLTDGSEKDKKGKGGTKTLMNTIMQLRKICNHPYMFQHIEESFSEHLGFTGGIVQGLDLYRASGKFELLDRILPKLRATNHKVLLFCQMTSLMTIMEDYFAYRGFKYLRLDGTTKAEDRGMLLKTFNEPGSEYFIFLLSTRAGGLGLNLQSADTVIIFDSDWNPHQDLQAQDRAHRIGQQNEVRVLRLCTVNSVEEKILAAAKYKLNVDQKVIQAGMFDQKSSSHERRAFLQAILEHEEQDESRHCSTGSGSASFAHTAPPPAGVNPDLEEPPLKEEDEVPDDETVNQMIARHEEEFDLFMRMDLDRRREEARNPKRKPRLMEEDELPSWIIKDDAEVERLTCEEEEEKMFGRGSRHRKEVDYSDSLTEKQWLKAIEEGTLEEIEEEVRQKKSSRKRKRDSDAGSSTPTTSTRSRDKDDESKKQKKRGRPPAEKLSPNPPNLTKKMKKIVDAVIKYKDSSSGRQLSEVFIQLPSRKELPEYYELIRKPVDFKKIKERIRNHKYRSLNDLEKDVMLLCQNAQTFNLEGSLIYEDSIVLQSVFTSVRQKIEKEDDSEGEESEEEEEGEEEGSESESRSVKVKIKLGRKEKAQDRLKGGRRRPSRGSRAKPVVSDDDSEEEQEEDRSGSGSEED

[9] = not recruited or below detection

GAAATTTAGAACAGAAAGTGAAACCA (double strand) [rs10833823 REF (A)]
binding signal [1]: 1.54 Z score | binding signal [2]: 9.71 Z score | binding signal ([3]; IFNg+LPS extract): 10.6 Z score

GAAATTTAGAACGGAAAGTGAAACCA (double strand) [rs10833823 non-REF (G)]
binding signal [1]: 3.36 Z score | binding signal [2]: 28.5 Z score | binding signal ([3]; IFNg+LPS extract): 15.8 Z score

GCCTAGAAGTCCCATGTTGCAGACTCGAAGGTCTAGGTCTTGATTCGCTTGACGCTGCTG (double strand) [CXCL10 tile 7]
binding signal ([4]; LPS 45 min extract): 0.56 Z score

GCCTAGCAAAACCTGCTGGCTGTTCCTGGGGACTAGGTCTTGATTCGCTTGACGCTGCTG (double strand) [CXCL10 tile 2]
binding signal ([4]; LPS 45 min extract): -0.374 Z score

GCCTAGCCATGTTGCAGACTCGAAGGTATTATCTAGGTCTTGATTCGCTTGACGCTGCTG (double strand) [CXCL10 tile 8]
binding signal ([4]; LPS 45 min extract): 0.079 Z score

GCCTAGCCTGCTGGCTGTTCCTGGGGAAGTCCCTAGGTCTTGATTCGCTTGACGCTGCTG (double strand) [CXCL10 tile 3]
binding signal [5]: 3.17 Z score | binding signal ([6]; LPS 45 min extract, replicate 1 (replicate 2: 3.237)): 3.75 Z score | binding signal ([6]; untreated extract, replicate 1 (replicate 2: 0.462)): -0.59 Z score | binding signal ([4]; LPS 45 min extract): 20.9 Z score | binding signal ([4]; untreated extract): 7.49 Z score | binding signal ([3]; LPS 45 min extract): -1.16 Z score | binding signal ([3]; untreated extract): -0.828 Z score

GCCTAGCTTAGCAAAACCTGCTGGCTGTTCCTCTAGGTCTTGATTCGCTTGACGCTGCTG (double strand) [CXCL10 tile 1]
binding signal ([4]; LPS 45 min extract): 0.046 Z score

GCCTAGGAAGGTATTATTTATTGTAGCCTCCACTAGGTCTTGATTCGCTTGACGCTGCTG (double strand) [CXCL10 tile 11]
binding signal ([4]; LPS 45 min extract): -1.38 Z score

GCCTAGGACTCGAAGGTATTATTTATTGTAGCCTAGGTCTTGATTCGCTTGACGCTGCTG (double strand) [CXCL10 tile 10]
binding signal ([4]; LPS 45 min extract): -0.567 Z score

GCCTAGGTTCCTGGGGAAGTCCCATGTTGCAGCTAGGTCTTGATTCGCTTGACGCTGCTG (double strand) [CXCL10 tile 5]
binding signal ([4]; LPS 45 min extract): 8.52 Z score

GCCTAGTATTATTTATTGTAGCCTCCAAGTTACTAGGTCTTGATTCGCTTGACGCTGCTG (double strand) [CXCL10 tile 12]
binding signal ([4]; LPS 45 min extract): -0.454 Z score

GCCTAGTGGCTGTTCCTGGGGAAGTCCCATGTCTAGGTCTTGATTCGCTTGACGCTGCTG (double strand) [CXCL10 tile 4]
binding signal ([4]; LPS 45 min extract): 15 Z score

GCCTAGTGGGGAAGTCCCATGTTGCAGACTCGCTAGGTCTTGATTCGCTTGACGCTGCTG (double strand) [CXCL10 tile 6]
binding signal ([4]; LPS 45 min extract): 14.3 Z score

GCCTAGTTGCAGACTCGAAGGTATTATTTATTCTAGGTCTTGATTCGCTTGACGCTGCTG (double strand) [CXCL10 tile 9]
binding signal ([4]; LPS 45 min extract): 0.218 Z score

TGATGCAATGAAATGGGGAAGTATTA (double strand) [rs11950944 non-REF (A)]
binding signal ([6]; IFNg+LPS extract): 2.36 Z score | binding signal [7]: 5.99 Z score | binding signal [8]: 2.99 Z score | binding signal [2]: 2.61 Z score

TGATGCAATGAAGTGGGGAAGTATTA (double strand) [rs11950944 REF (G)]
binding signal ([6]; IFNg+LPS extract, not recruited or below detection): -0.13 Z score | binding signal [7]: 4.04 Z score | binding signal [8, 9]: -0.38 Z score | binding signal [2, 9]: 0.37 Z score
